Earlier results, collected in article PMC10967246.
Like-named read-outs stand apart in the source and are kept apart here.

Experiments:
[1] = target: GluTR (Arabidopsis thaliana) (UniProt P42804)
[2] = target: GluTR (Arabidopsis thaliana) (UniProt P42804); assay: MST

Chain of GluTR (Arabidopsis thaliana) (P42804 62-543): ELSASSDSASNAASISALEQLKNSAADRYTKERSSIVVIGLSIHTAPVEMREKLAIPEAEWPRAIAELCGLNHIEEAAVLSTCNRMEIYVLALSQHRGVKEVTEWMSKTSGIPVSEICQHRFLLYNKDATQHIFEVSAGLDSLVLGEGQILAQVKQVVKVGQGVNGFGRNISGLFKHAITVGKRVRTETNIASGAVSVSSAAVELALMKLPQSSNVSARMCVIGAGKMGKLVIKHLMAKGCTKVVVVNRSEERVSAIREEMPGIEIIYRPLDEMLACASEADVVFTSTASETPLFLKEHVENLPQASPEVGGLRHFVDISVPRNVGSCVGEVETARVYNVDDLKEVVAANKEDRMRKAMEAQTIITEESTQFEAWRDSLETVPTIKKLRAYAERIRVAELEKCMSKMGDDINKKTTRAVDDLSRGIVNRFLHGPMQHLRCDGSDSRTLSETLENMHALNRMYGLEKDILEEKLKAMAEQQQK
Chain of FLU TPR domain (Q940U6 203-316): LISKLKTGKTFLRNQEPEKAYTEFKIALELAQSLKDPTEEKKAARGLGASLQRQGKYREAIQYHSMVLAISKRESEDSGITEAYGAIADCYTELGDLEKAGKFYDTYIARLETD
Chain of GBP (Q9LU39 43-317): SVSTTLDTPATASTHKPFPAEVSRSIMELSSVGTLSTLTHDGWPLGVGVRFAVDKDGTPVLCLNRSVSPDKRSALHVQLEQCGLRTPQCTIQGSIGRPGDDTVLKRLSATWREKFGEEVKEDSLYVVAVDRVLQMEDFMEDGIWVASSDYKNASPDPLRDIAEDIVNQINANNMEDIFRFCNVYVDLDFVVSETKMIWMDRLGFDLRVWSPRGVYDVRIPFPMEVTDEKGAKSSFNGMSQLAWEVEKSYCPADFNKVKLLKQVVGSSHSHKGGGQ

Row | Substance | Kd [1] | Kd [2]
1 | FLU TPR domain (from UniProt Q940U6) | 475 nM | –
2 | GBP (from UniProt Q9LU39) | – | 42 nM
